Assay results published in patent publication EP4606823A1 (Bristar Immunotech Limited, dated 2025).

T1: mouse LILRB4 (mouse, UniProt Q64281 24-335)
T1 construct: whole, on cells; also called 293T-mouse LILRB4
T1 sequence (looked up): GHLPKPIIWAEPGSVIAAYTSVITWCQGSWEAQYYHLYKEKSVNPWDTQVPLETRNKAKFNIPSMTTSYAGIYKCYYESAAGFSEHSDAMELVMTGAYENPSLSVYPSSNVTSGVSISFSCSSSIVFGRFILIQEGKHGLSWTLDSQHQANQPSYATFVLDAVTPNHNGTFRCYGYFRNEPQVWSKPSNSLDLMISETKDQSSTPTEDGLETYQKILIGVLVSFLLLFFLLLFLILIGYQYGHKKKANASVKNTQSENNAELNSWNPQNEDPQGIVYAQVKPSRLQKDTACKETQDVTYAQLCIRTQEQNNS

B1: NLB4 VHH antibody fused with human IgG1 (Fc) (Fc fusion)
chain: DVQLQESGGGLVQSGGSLRLSCLASGTSGNVKAVGWYGWYRQAPGKQREVVATITRGGIPNYADSVQGRFTISRDNAQDTVFLQMNSLKPADTAVYYCYARILTDDWHDLWGQGTQVTVSSGGGGS
notes: also called NLB(G4S)IGG1FC; NLB4 nanobody; not shown: human IgG1 Fc
B2: NLB14 VHH antibody fused with human IgG1 (Fc) (Fc fusion)
chain: DVQLQESGGGLVQPGGSLRLSCAASGFTLDYYAIGWFRQAPGKEREGVSCVSSSDGSTYYADSVKGRFTISRDNAKNTVYLQMNSLKPEDTAVYYCAADQYSSTWTIRLTRCHFGSWGQGTQVTVSSGGGGS
notes: also called NLB(G4S)IGG1FC; NLB14 nanobody; not shown: human IgG1 Fc

Tests used:
[1] = molecular target: T2, LILRB4 protein (UniProt Q8NHJ6 22-259); assay: SPR (Biacore 8K); VHH-Fc captured by anti-human IgG(Fc) on CM5 chip, LILRB4 protein as analyte 0.977-62.5 nM; 1:1 binding fit
T2 construct: also called Pro-LB

[2] = molecular target: T3, stock region of LILRB4 (UniProt Q8NHJ6 219-259, limits assumed); assay: flow cytometry
T3 construct: domain: stock region
T3 sequence (Q8NHJ6 219-259 limits assumed): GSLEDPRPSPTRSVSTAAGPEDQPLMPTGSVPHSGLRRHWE

[3] = molecular target: T1, mouse LILRB4; assay: flow cytometry on 293T-mouse LILRB4
[4] = molecular target: T4, LILRB3 (UniProt O75022 24-631, limits assumed); assay: flow cytometry on 293T cells expressing the protein
T4 construct: whole, on cells
T4 sequence (O75022 24-631 limits assumed): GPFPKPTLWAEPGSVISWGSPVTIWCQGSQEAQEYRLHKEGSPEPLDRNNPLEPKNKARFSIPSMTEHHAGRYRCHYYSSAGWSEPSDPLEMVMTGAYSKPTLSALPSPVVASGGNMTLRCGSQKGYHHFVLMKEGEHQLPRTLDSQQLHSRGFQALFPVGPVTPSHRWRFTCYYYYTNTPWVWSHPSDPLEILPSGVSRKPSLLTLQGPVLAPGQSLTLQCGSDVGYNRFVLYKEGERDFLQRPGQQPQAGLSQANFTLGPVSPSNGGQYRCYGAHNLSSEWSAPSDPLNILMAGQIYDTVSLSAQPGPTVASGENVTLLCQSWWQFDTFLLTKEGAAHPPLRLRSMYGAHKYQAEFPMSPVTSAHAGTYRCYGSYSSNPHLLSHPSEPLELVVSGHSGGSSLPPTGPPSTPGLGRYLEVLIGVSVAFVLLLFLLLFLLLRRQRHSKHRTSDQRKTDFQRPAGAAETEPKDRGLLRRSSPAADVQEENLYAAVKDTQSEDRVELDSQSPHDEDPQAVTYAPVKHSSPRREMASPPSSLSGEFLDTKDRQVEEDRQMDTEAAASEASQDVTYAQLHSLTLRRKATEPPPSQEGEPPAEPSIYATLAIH

[5] = molecular target: T5, LILRA6 (UniProt Q6PI73 24-481, limits assumed); assay: as above
T5 construct: whole, on cells
T5 sequence (Q6PI73 24-481 limits assumed): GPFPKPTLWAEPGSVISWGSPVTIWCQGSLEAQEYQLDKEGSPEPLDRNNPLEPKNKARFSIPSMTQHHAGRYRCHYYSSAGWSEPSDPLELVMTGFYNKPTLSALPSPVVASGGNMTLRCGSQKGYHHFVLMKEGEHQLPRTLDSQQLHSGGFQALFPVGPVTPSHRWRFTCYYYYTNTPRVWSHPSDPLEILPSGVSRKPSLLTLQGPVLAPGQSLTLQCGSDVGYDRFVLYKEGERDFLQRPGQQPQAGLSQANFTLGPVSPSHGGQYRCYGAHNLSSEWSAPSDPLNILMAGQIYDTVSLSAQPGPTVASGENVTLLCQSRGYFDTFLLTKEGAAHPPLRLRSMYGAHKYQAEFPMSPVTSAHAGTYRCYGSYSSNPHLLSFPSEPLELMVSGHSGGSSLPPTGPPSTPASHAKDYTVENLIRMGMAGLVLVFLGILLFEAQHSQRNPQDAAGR

[6] = molecular target: T6, LILRA1 (UniProt O75019 17-489, limits assumed); assay: as above
T6 construct: whole, on cells
T6 sequence (O75019 17-489 limits assumed): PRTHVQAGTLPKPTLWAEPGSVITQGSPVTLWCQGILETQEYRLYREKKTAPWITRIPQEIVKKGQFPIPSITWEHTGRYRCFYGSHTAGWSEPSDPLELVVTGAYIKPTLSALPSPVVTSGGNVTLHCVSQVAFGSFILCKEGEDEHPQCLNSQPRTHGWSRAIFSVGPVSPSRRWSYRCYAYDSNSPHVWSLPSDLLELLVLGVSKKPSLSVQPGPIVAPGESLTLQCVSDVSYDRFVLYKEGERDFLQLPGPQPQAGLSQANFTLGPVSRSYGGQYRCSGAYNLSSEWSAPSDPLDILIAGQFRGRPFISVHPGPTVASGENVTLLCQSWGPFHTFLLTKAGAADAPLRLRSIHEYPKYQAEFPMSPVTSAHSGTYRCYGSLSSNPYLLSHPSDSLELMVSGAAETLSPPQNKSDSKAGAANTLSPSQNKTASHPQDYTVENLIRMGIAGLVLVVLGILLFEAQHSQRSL

[7] = molecular target: T7, LILRB5 (UniProt O75023 24-590, limits assumed); assay: as above
T7 construct: whole, on cells
T7 sequence (O75023 24-590 limits assumed): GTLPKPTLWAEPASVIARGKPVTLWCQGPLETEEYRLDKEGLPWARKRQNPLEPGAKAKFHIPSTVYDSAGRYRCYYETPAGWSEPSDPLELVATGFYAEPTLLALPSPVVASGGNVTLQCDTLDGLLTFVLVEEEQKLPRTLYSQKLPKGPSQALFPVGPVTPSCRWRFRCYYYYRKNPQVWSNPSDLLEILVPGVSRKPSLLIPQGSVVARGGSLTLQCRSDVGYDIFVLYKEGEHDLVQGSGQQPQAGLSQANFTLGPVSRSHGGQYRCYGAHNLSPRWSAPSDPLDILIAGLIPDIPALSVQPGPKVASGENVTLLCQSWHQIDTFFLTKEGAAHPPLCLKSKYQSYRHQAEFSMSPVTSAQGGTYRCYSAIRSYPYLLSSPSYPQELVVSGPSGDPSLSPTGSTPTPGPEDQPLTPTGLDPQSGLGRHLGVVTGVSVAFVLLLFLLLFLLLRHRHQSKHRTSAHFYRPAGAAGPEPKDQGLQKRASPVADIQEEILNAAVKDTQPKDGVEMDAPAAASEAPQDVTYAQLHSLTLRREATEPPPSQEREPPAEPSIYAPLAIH

[8] = molecular target: T8, LILRA2 (UniProt Q8N149 24-483, limits assumed); assay: as above
T8 construct: whole, on cells
T8 sequence (Q8N149 24-483 limits assumed): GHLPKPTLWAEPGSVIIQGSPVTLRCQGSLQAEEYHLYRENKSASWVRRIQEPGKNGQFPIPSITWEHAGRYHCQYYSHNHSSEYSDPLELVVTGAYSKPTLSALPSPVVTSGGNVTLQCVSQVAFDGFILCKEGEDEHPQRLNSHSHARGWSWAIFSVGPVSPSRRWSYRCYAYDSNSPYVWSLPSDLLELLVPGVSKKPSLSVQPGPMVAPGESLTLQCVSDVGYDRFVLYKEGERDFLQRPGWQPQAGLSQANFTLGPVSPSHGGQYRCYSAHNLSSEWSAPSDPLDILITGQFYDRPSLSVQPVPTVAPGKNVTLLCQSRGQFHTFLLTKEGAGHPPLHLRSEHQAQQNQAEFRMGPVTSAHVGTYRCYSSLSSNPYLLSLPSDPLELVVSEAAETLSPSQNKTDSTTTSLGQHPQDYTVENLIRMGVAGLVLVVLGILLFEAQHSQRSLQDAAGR

[9] = molecular target: T9, LILRA4 (UniProt P59901 24-499, limits assumed); assay: as above
T9 construct: whole, on cells
T9 sequence (P59901 24-499 limits assumed): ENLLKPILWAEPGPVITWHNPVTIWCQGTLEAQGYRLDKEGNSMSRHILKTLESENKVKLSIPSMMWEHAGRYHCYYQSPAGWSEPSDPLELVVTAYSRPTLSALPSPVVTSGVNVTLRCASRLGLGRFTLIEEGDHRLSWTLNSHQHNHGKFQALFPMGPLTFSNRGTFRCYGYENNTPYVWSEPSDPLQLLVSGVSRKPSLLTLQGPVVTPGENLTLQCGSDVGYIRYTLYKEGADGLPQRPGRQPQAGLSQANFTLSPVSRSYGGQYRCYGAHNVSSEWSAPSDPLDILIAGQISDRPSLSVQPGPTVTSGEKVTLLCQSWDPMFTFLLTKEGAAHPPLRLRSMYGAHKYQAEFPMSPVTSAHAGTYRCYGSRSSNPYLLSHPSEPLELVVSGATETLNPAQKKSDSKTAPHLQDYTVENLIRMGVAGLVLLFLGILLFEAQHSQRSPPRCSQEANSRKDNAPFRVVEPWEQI

[10] = molecular target: T10, LILRB2 (UniProt Q8N423 22-597, limits assumed); assay: as above
T10 construct: whole, on cells
T10 sequence (Q8N423 22-597 limits assumed): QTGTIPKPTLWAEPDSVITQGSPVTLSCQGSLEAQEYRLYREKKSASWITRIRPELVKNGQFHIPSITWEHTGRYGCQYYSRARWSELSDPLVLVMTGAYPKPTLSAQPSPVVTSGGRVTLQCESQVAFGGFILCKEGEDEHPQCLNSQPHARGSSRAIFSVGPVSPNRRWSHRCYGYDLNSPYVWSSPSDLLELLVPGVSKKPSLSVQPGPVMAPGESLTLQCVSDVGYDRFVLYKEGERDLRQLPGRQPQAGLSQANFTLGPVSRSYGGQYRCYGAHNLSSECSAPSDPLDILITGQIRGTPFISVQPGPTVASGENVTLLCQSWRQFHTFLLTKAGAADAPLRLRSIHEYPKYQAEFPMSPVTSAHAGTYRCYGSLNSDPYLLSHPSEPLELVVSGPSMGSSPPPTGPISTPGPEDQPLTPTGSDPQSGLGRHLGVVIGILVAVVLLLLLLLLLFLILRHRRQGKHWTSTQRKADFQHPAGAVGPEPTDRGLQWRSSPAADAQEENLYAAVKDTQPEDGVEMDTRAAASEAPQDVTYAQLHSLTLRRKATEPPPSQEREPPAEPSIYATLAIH

[11] = molecular target: T11, LILRA3 (UniProt Q8N6C8 24-439, limits assumed); assay: as above
T11 construct: whole, on cells
T11 sequence (Q8N6C8 24-439 limits assumed): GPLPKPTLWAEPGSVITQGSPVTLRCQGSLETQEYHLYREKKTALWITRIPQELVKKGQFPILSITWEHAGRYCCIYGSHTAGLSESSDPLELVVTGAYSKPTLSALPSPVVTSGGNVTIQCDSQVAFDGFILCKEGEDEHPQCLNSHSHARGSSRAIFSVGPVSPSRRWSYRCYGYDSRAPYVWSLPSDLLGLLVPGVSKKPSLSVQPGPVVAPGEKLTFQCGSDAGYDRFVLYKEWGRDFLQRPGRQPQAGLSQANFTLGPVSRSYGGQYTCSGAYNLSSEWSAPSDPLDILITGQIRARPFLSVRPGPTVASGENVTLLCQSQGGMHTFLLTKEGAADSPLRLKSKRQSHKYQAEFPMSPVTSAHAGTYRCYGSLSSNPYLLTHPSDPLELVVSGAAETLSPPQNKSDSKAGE

[12] = molecular target: T12, LILRA5 (UniProt A6NI73 42-299, limits assumed); assay: as above
T12 construct: whole, on cells
T12 sequence (A6NI73 42-299 limits assumed): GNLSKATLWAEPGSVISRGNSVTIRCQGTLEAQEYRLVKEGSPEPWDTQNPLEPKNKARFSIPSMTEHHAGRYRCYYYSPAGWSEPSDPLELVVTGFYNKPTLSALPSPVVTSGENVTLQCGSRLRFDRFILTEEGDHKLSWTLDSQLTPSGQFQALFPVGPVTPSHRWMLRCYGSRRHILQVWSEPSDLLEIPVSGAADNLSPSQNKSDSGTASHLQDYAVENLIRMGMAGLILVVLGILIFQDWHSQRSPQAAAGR

[13] = molecular target: T13, LILRB1 (UniProt Q8NHL6 24-650, limits assumed); assay: as above
T13 construct: whole, on cells
T13 sequence (Q8NHL6 24-650 limits assumed): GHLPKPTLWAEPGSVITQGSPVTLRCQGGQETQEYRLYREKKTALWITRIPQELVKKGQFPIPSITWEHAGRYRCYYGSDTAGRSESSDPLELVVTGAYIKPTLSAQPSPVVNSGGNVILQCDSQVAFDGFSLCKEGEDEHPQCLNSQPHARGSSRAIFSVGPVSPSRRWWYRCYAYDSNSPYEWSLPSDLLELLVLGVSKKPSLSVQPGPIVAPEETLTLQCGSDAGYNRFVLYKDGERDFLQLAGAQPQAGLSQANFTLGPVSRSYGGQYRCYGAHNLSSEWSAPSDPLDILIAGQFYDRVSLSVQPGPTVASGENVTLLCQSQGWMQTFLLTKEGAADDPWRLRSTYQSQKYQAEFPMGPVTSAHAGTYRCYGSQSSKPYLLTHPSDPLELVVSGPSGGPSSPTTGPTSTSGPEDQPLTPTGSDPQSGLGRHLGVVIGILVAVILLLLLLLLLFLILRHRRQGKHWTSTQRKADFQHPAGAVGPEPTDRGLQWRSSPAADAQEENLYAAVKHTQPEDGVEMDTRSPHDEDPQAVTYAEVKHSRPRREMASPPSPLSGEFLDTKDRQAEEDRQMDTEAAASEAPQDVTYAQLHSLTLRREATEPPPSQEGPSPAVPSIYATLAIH

Binder | Kd [1] | koff [1] | kon [1] | binding result [2] | binding result [3] | binding result [4] | binding result [5] | binding result [6] | binding result [7] | binding result [8] | binding result [9] | binding result [10] | binding result [11] | binding result [12] | binding result [13]
B1 | 1.32 nM | 0.000551 s⁻¹ | 418000 M⁻¹ s⁻¹ | no binding | no binding | no binding | no binding | no binding | no binding | no binding | no binding | no binding | no binding | no binding | no binding
B2 | 0.493 nM | 0.000301 s⁻¹ | 612000 M⁻¹ s⁻¹ | no binding | no binding | no binding | no binding | no binding | no binding | no binding | no binding | no binding | no binding | no binding | no binding
